The assay deals with NKG2D ligands on NKG2D ligand-expressing cells. Kind of assay: summary of the Examples; assay not given.

In turn, hNKG2Dx2-hIgG1 (Fc fusion) returned a fold improved binding avidity against monomeric NKG2D-Fc chimeras of less than 100 fold.
